In the supplement of paper PMC12338614:

B1: library; numbered along this chain (parent)
chain: MEVVDPQQLGMFTEGELMSVGMDTFIHRIDSTEVIYQPRRKRAKLIGKYLMGDLLGEGSYGKVKEVLDSETLCRRAVKILKKKKLRRIPNGEANVKKEIQLLRRLRHKNVIQLVDVLYNEEKQKMYMVMEYCVCGMQEMLDSVPEKRFPVCQAHGYFCQLIDGLEYLHSQGIVHKDIKPGNLLLTTGGTLKISDLGVAEALHPFAADDTCRTSQGSPAFQPPEIANGLDTFSGFKVDIWSAGVTLYNITTGLYPFEGDNIYKLFENIGKGSYAIPGDCGPPLSDLLKGMLEYEPAKRFSIRQIRQHSWFRKKHPPAEAPVPIPPSPDTKDRWRSMTVVPYLEDLHGADEDEDLFDIEDDIIYTQDFTVPGQVPEEEASHNGQRRGLPKAVCMNGTEAAQLSTKSRAEGRAPNPARKACSASSKIRRLSACKQQ

Variants of: B1
Test: STK11 functional score (HeLa growth suppression), rescaled enrichment; synonymous median = 1, nonsense median = 0 (normalised score)
Details: with HeLa; variant type: missense
Summary of the method: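 HeLa cells carrying an AAVS1 landing pad received codon-optimised STK11 libraries made by codon randomisation (POPCode), integrated by Bxb1, with three regions each transfected three times. Integrants that were BFP-negative and mCherry-positive were sorted by FACS 4–5 days after electroporation and then grown for about two weeks. Tiled amplicons from gDNA were sequenced on NextSeq at ~2 million reads per tile. The functional score is a wild-type-corrected log ratio of post- to pre-selection counts, rescaled to the synonymous and nonsense medians, merged across codons and replicate transfections, and given a bootstrapped error.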

STK11 functional score, by site and new letter:
T250: I 1.35 | E 0.89 | G 0.834 | C 1.22 | A 1.01 | F 1.14 | H 1.65
I238: M 0.843 | S 0.58 | F 0.0789 | V 1.21 | R -0.17 | C 1.39 | T 1.31 | N 1.22
Y246: S 0.254 | E 0.0519 | R 0.128 | A 1.06 | Q 1.11 | P -0.0491 | W 1.15 | I 1.13 | C 0.451 | D -0.149 | F 0.678 | L 0.818 | M 1.29 | G 0.403 | H -0.136 | V 0.944 | T 0.982
V236: L 0.273 | A 1.56 | F 1.21 | W 1.04 | C 1.44 | S 1.4 | I 1.24
T249: A 0.412 | W 0.0979 | G 0.293 | R 1.28 | E -0.289 | D -0.107 | P -0.0108 | N 0.652 | I 0.664 | M 1.47 | V 1.56 | L 1.08 | H 1.64 | S 1.24 | K -0.0774
I248: W 0.853 | D 0.0228 | A 1.15 | C 1 | V 0.854 | L 1.05 | R -0.248 | Q 1.25 | E 0.873 | S 0.859 | H -0.139 | G 0.0645 | F 0.497 | M 1.24 | P -0.0931 | T 1.15 | Y 0.287
D237: H 1.53 | N 1.36 | E 0.97
D229: Q 1.49 | F 0.981 | M 1.28 | K 0.652 | W 0.347 | R 0.991 | A 0.987 | L 1.05 | H 0.539 | S 1.01 | V 0.388 | T 1.67 | Y 0.508 | P 1.68 | E 1.03 | G 1.03
N226: V 0.778 | W 1.65 | P 0.609 | T 1.26 | S 0.759 | R 1.51 | Q 1.45
T244: A 0.738 | L 1.02 | M 1.38 | R 0.00573 | W 0.257 | E -0.168 | I 0.627 | G 0.014 | V 1.15 | P -0.17 | F 0.698 | C 1.32 | N 0.0991 | K 0.388 | D -0.0204 | S 0.613 | Q -0.178 | H 0.0105 | Y 0.127
G233: Q 1.62 | F 1.46 | R 0.173 | S 1.44 | N 1.19 | V 0.47 | A 1.3 | Y 1.04 | W 1.16 | T 1.7 | C 1.43 | L 1.57 | D 1.56
G242: P 0.0217 | K 0.078 | V -0.059 | M -0.0974 | S 0.0147 | T -0.128 | A 0.823 | F 0.0262 | D 0.0263 | H 0.0155 | I -0.186 | C -0.0194 | E 0.274 | N -0.133 | L -0.0195 | R -0.0649 | Y -0.0296
S232: W 0.692 | D 1.14 | M 0.515 | E 1.36 | G 0.97 | V 0.841 | P 0.971 | H 1.3 | R 1.39 | N 1.28 | C 1.17 | A 1.04 | Y 0.917 | L 0.996 | Q 1.03 | I 1.4 | K 1.67
S240: T 1.07 | I 0.369 | V 0.33 | G 1.05 | M 0.927 | A 0.891 | R 0.823 | N 1.11 | P -0.0488 | C 1.38 | E 1.52 | D 0.841 | Q 0.866 | W -0.126 | L 0.708 | H 1.08
T230: A 0.88 | M 0.971 | P 1.1 | R 1.39 | K 1.29 | E 1.65 | W 1.17 | F 0.961 | G 0.522 | V 1.5 | C 1.19 | H 1.46 | N 1.2 | L 0.829 | Q 1.39 | S 0.93
N247: T 0.951 | M 0.7 | D 0.827 | Q 1.17 | Y 1.32 | K 0.794 | V 0.824 | F 0.863 | S 1.3 | H 1.26 | I 1.16 | C 1.15 | E 1.33 | A 1.37 | W 0.698 | R 0.936 | P -0.0537 | L 1.17 | G 0.808
L228: M 0.601 | F 1.34 | Y 1.25 | A 1.66 | R 1.68
F231: G 1.17 | M -0.0118 | Y 0.865 | C 1.33 | I 1.62 | V 0.867 | R 1.26 | T 1.64 | E 1.24 | S 0.515 | L 0.842 | H 0.765 | D 1.56 | P 0.959 | A 1.61 | W 0.409 | N 1.69
G227: F 1.14 | T 1.67 | V 0.625 | R 0.588 | E 0.563 | P 1.1 | D 1.13 | C 0.981 | S 1.49 | Q 1.26 | L 0.694 | M 1.69 | Y 1.46 | A 0.273 | W 1.29
K235: N 0.877 | Q 1.58 | W 1.51 | C 1.4 | V 0.794 | Y 1.19 | G 1.28 | I 1.06 | H 1.29 | S 1.67 | A 1.65 | P 1.65 | L 1.24 | T 0.534
W239: H 0.199 | G -0.0583 | T -0.0973 | S 0.00373 | P -0.0966 | I -0.18 | E -0.254 | Y 0.934 | D -0.00743 | R 0.273 | C 0.0722 | K 0.155 | V -0.13 | A 0.388 | L 0.325 | M 0.267
V243: W 0.598 | L 0.714 | G 0.469 | C 1 | E 0.204 | F 0.591 | N 0.56 | R 0.16 | H -0.00535 | I 1.42 | Q 1.19 | T 1.29 | A 0.996 | S 0.561 | M 0.378 | D -0.0994 | P -0.157
L245: W -0.0585 | S -0.117 | A 0.101 | V 0.345 | G -0.177 | D -0.177 | R -0.0758 | P -0.14 | F 0.00828 | K 0.475 | C 0.21 | T -0.038 | H -0.0776 | E -0.0467 | M 0.526 | Q 0.383 | I 0.581 | Y -0.0275
A241: T -0.298 | C 1.21 | D 0.383 | G 0.802 | S 0.863 | P 0.702
F234: C 1.05 | W 1.44 | L 0.75 | D 1.18 | S 1.1 | I 1.67 | G 1.33 | Y 0.805 | V 1.2 | A 1.35 | R 1.5 | E 1.59
